# Experiment: soluble on expression in E. coli; label from the status in PepcDB or PDB records
row,Sequence,soluble on expression in E. coli
1,MAQHVKKPEWLKIRLGGNEKFTETKSIVEGHCLHTICTSGKCPNMGECWSRGTATFMIGGDICTRACRFCNTLTGRPKPLNEAEPTHVALSIKLMGLNHAVVTSVDRDDLPDYGAAHWVKTIQEIRRINSGVTLEVLIPDFKGRMDLVDMIIEASPDVISHNLETVRRLTPSVRSVATYDTSLAVLRHIAQSGKMPAKTGMMLGLGETEEEILELMDDALAAGVSVITIGQYLQPSRKNLPVVEYITPEQFEHLRLVGIEKGFRTIESAPLVRSSYHAERHL,not soluble
2,MSDEEIDISTALNNKTTPKKKSLKRNSNSQEGYESPEEREIVYPSVFGAIGTPMAKSDNAKEWDEWKEKERKKDKAEWKRYLRSKWDMTQGHLPLVSDSEFLKGRKEHKEYNSKARMDILDGLDEVNEGFFNCGKGAAMNIRYNDKNVSKKGAKKFVATVETAMKKAGNPTMEQMMTDDLDEDEARAEAEWERQREQRKLASRAYDAAMDEREDDAKYVPWDEYCQEMEELGKELKIGEKHYKKWLEKKMDENKVTHKFNAYQLDLKCLDEDAFSNKKSLKSVVRNVQKFYRKMREPKK,not soluble
3,MAHHHHHHMPTEAHGWAALSAKSKLEPFAFQRRDVGPDDVVIAIAYCGVCHSDVHQARDEWDGSTFPMVPGHEIVGHVTKVGSEVTKYKAGDRVGVGCMVDSCMKCRQCERGLEQYCVNGASFTYNSTQQDKKTPTFGGYSDHVVVREHFVVSIPDNLDLCAAAPLLCAGVTTFSPLRYWGVKKGTRVGVVGLGGLGHMAVKLANAMGAEVTVFTRSSNKVEEAENLGAHHVVNTNNEQEMNSIQGTLDVIVDTVGMSHDLRPYMMTLDIDGKLALVGMPEHAHPPLDPRRIIASRQCVGGSNIAGMPETQELLNFCGEHNITATVEKIGIEYINEAYERILASDVRYRFVIDMASLKKE,soluble
4,SNAMNVNQIVRIIPTLKANNRKLNETFYIETLGMKALLEESAFLSLGDQTGLEKLVLEEAPSMRTRKVEGRKKLARLIVKVENPLEIEGILSKTDSIHRLYKGQNGYAFEIFSPEDDLILIHAEDDIASLVEVGEKPEFQTDLASISLSKFEISMELHLPTDIESFLESSEIGASLDFIPAQGQDLTVDNTVTWDLSMLKFLVNELDIASLRQKFESTEYFIPKSEKFFLGKDRNNVELWFEEV,soluble
5,MGSDKIHHHHHHMKFPRIGLPKEKVIELINEKTKKDLTFSSGKILGSMCTMPHDLAIEVYTKYIDRNLGDPGLHPGTRKIEEEVIEMISDLLHLEKGHGHIVSGGTEANILAVRAFRNLSDVEKPELILPKSAHFSFIKAGEMLGVKLVWAELNPDYTVDVRDVEAKISDNTIGIVGIAGTTGLGVVDDIPALSDLARDYGIPLHVDAAFGGFVIPFAKELGYELPDFDFKLKGVQSITIDPHKMGMAPIPAGGIVFRRKKYLKAISVLAPYLAGGKVWQATITGTRPGASVIAVWALIKHLGFEGYMRIVERAMKLSRWFAEEIKKINNAWLVREPMLNIVSFQTKNLKKVERELKSRGWGISAHRGYIRIVFMPHVTREMIEEFLKDLKEVLS,not soluble
6,MGSDKIHHHHHHGADVETPSVSISVSPENPKVGEEVTVTINTDAQYLTLFTGDEGKNFERSRIKAIMEHDWDSFYEECYRVSYAKNGEKTLFYKYFKDYQSIEDVKKDFEFFGAIDNIQLVPYKKGDFPEALMEMSYIGTNQLKFTVTDRRIPSGIRMKPNIHIFGGLANQPGNTIIESRFVACDADRAIRKYSNDAWVAAYFGLHTEQLEDFQGYSAGYKYYTFQDERSYGAFQTNDPLSRRPTEGFYKLGDMYNRDTYLQPFLDHGEKIILRQVDMYVNGRSTFVAADDSPYKYDLDGDGVLESYECELDPATGLPVHEADYTKYKGFQGDVYLSFIEMGTDEYEPWNTGVSLGSVYTTGGIQKTYKYIYTGAGDFTITAVATNVGDKDYKGIDYSEERSNSLDDYSHKRALSSVKVSVKP,not soluble
7,MELRAATKLTEEKYELKEGQTLDVKCDYTLEKFASSQKAWQIIRDGEMPKTLACTERPSKNSHPVQVGRIILEDYHDHGLLRVRMVNLQVEDSGLYQCVIYQPPKEPHMLFDRIRLVVTLEHHHHHH,soluble
8,MATQLLMPKATAVWLVDNTALTFDQIAEFCKLHVLEVKAIADGEAAYGIKGLDPISSGQLTRSEIARVEADKNARLKISQSKVHIPEKKRKGARYIPLSRRQDRPNGILWLVTNHPELKDAQIARLIGTTKGTIEQIRNRTHWNSANLVALDPVGLGLCLQIDLDIELKRAAKNRPLSNEEDKSLLPASVTENVAIHEKEHEQDFNKNFDADKVFAKLNALQKNRENDASTELEHHHHHH,soluble
9,MSLRTYLPGESEEVLSEGWTLTLTPADACETPSDIPASLESLHVSVPGTVGQALEAAGKFDRLAPVALNDRDAWYRLTMISDARERAILRFDGLSTIAEIFFNGELIAASQSMFERLEVPVQMTGADELSICFRALAPRLEKPGPRARWRPQMMNTQGLRLIRTTALGYMPGWCPEIHSAGPWRPISLIKQDGVLCTLRSSLDDTGTGKVSIVLQANRDIQSARLICAGYSINLSKAEDGKLLGELIIPGVEIWWPHTHGRPALHEVVLELDGNQHRLGRTGFRQVEIDHGEDGNGFGLKVNGQPVFCRGAVWTTADIVRLPGTRPDYEPWLKKAAEAGMNMIRVGGTMAYETPEFFALCDELGIMVWQDAMLANFDYPAKDDGLRQHIVMEIEQLLESTALSPSFAIFCGGSEMYQQGAMLGLPEQIWKGTLTEEILPELVAEKRPDAAYVANSPSGGALPFFPNAGVGHYYGVGAYCRPLEDARRADLRFAAECLAFANIPEQETLDRYLPGVAVHDPRWKARTPRDRGASWDFEDVRDHYLKLLYEAEPDVLRREDGALYLDMSRAATAEVMEATFAEWRRSGSSCQGALVWTLQDLVPGAGWGIIDAAGRPKSVWHALKRAFRPVQVSLSDEGTNGLDIHILNDTGDSLNTMLELTCLREGLQPVVHAKRPLALLPRESQTIAATDLFGAFFDTTYAYRFGPPSHDVTIARLRDIATGHVIADAFHFPLGRKKALHAANLQVAISETNGHWSLEIGTDRLAQSVHITAEGYRACESWFHLGPGEARKIGLLPETATTEAPPSGEVVSLGSSRRFSEGHHHHHH,not soluble
10,MGSDKIHHHHHHMTDRSSFIDTARQVVLDEARALDALSESLGDGFAEAVELILRTKGRVIVSGIGKSGHIGHKIAATLASTGTPAYFVHPAEASHGDLGMLSGDDVVLAISNSGEAPELANLLAFTRRFAIPLIGLSSKSESSLMQQADVHLLIPALGEACGFGMVPSISTTLTLAMGDALAIALMKYRDFRPENFRVFHPGGKLGARLSRVSDLMHGGEAVPLIAADTPMSEALLEISRKGFGVVGVTDGAGHLAGIVTDGDLRRHMSGLLDKTAAQVMTANPTTIAPDSLAEEAVAIMNARKITSLFVVDPAEPGVARGLLHIHDCLRVGLG,not soluble
11,MGSDKIHHHHHHADNAPAKVQTALKKMYPKADGIAWSQDGGYYCADFMMNGYEKNVWFNAQGQWQMTQTEWGDTDELSATVYNAYASGPYSGWQVEDVTYVEFPKWQPIIVIKVGQQNVDIQYQLFYSPNGTLLRTRNVSYMGDILGPGTFL,not soluble
12,SNAMTDAVLELPAATFDLPLSLSGGTQTTLRAHAGHWLVIYFYPKDSTPGATTEGLDFNALLPEFDKAGAKILGVSRDSVKSHDNFCAKQGFAFPLVSDGDEALCRAFDVIKEKNMYGKQVLGIERSTFLLSPEGQVVQAWRKVKVAGHADAVLAALKAHAKQ,soluble
13,MMEVLTGPERRRRWSVEEKLALVRESFEPGKTVSMVARQHGVNPNQVFHWRKLYQDGSLSAVSAGEEVVPASELAEALKLVRVLQRMLGKKTMENEILREAVEYGRAKKWIARSPSLPGDDQLEHHHHHH,not soluble
14,MDNNPIENFMRTTMENIKGMIDVNTIVGEPIKNTDGSLIIPISKVSFGFASGGSEFKSQEDSQENKKIYPFGGGAGAGVSLKPIAFLVIKDDSVRLLPLNAENTYEKVVDMIPQLIEMCKGFSHKSKKEKCCNDDKKKDSNSTNGNTDNANQNSQQQSLEHHHHHH,soluble
15,MDFDRIAMRTTDPAWQKGSAPATPSPVEADAKVTMRLRYTKTGAMRYLSHLEMIGLFTRAVGRARLPIRFSQGFHPHPKFSFATALSVGVESWAEYLDMELIPSLTPGEVRDRLNAALPEGMRIVEAVVIPPGTPSLSVLMDKVRYRIILLEEAARDLAARAEAFLARDSFPLRRAKKGRIQEYDLEHHHHHH,not soluble
16,MTMGKRTQAPALEVRLLREGIIESKHIVQAVVCDERGRVLSVAGNSETATFVRSALKPFQALAVTTTGTLERYDLSDRDLAIITSSHKGTIEQVRQAFNILWRADLDPSVLQCPIPQGKRSPLEYNCSGKHAGMLAICQQRHWPLNNYMDRKHPVQQLVLAKVAELLRMPAAEFISAHDDCGVPTYLLQLGQISSLYALLAASNNLDMERIVRAMTHHPSMVAGEREFDTELMRLTPGELVSKSGAEGVQCIGRLGEGMGLTIKVMDGAKRAKYAVAIHLLQQMGWITPSVAESLAEKFMNPGKYTRLEVVGELSLLLEHHHHHH,not soluble
17,MKPENKIPVLTRLSDEMTAVVNFQQPGLPPWPADGDIETQRQYYLLERRFWNADAPSMTTRTCAVPTPYGDVTTRLYSPQPTSQATLYYLHGGGFILGNLDTHDRIMRLLARYTGCTVIGIDYSLSPQARYPQAIEETVAVCSYFSQHADEYSLNVEKIGFAGDSAGAMLALASALWLRDKHIRCGNVIAILLWYGLYGLQDSVSRRLFGGAWDGLTREDLDMYEKAYLRNDEDRESPWYCLFNNDLTRDVPPCFIASAEFDPLIDDSRLLHQTLQAHQQPCEYKMYPGTLHAFLHYSRMMTIADDALQDGARFFMARMKTPR,not soluble
18,MGSRTGSREEHSLQFLNLTKMTTTTASNLPWVEKYRPSKLDELVAHEQIVKTLTKFIENRTLPHLLFYGPPGTGKTTTVLAAARQMYSPTKMASMVLELNASDERGIDVVRNTIVNFAQTKGLQAFSTSSNTGTVPFKLVILDEADAMTKDAQNALRRLDKTDYEQNIIIHNVNIYFRVIEKYTDNVRFCIICNYLASIVPAIQSRCTRFRFAPLDQKLIVPRLEYIVETEQLKMTPDGKDALLIVSKGDMRTVINTLQSTAMSFDTVSENTVYQCIGQPTPKEMKEVVKTLLNDPSKKCMNTIQTKLFENGYALQDVITHLHDFVFTLDIPDEAMSAIITGLGEVEENLSTGCSNETQLAAVVAAFFEAKRLCVKEMKNLEIEDMEF,not soluble
19,MGSTGETQITPTHISDEEANLFAMQLASASVLPMILKSALELDLLEIIAKAGPGAQISPIEIASQLPTTNPDAPVMLDRMLRLLACYIILTCSVRTQQDGKVQRLYGLATVAKYLVKNEDGVSISALNLMNQDKVLMESWYHLKDAVLDGGIPFNKAYGMTAFEYHGTDPRFNKVFNKGMSDHSTITMKKILETYTGFEGLKSLVDVGGGTGAVINTIVSKYPTIKGINFDLPHVIEDAPSYPGVEHVGGDMFVSIPKADAVFMKWICHDWSDEHCLKFLKNCYEALPDNGKVIVAECILPVAPDSSLATKGVVHIDVIMLAHNPGGKERTQKEFEDLAKGAGFQGFKVHCNAFNTYIMEFLKKV,soluble
20,MSLSNDYPLVSIIIPTYNSSDYITETLTKLEKQTYPNFEIVIVNDGSKDNTSSVLREYGLTHSRLIIINKENGGVSSARNTGIRKAQGQFICFMDDDDEIDPNYLLKMYSRQHETGGDAIYCGLYGHHIKNGVTYSPINTDFNEGSLLFDFFYKKVRFHIGCLFIRKQLLEDNNLFFDEDLRLGEDLDFIYRLLITCDMYAVPYYMYKHNYRENSLMNSCRTITHYRHESFAHERIYSSVMQLYKGNRKEEIHTLLSKNRTYHKTRYLWNVLLNGDFELLNQLVESNEKELKDCNLLGKRDKRRAKILASKNYILWRMVRLVNRKKNKEGHHHHHH,soluble
